The values that follow come from the nanobody polyreactivity screen of Harvey et al. (2022).

The nature of this series: yeast display, Sf9 membrane polyspecificity reagent, FACS + sequencing; frameworks hold sequencing errors. The procedure, abridged: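 Polyreactivity labels are assigned by the sorting gate from which each nanobody was recovered. The gates were low and high (top ~1%), set on anti-HA fluorescence for expression and streptavidin fluorescence for reagent binding. Before sorting, galactose-induced (36–48 hours) yeast display cells were stained for 1 hour at 4 °C with 10% biotinylated, detergent-solubilized Sf9 membrane reagent.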
In the case of “QVQLVESGGGLVQAGGSLRLSCAASGRTFSSYTMGWYRQAPGKERELVASITNNGGSTYYADSVKGRFTISRDNEKNTVYLQMNSLKPEDTAGYYCNANSRVGLQDKKPRDYDGYDSWGQGTQVTVSS”, the “polyreactivity (PSR sort gate)” value is recorded as “low polyreactivity”.
Regarding “QVQLVESGGGLVQAGGSLRLSCAASGRTFSTNAMGWYIQAPGKEREFVAAITGSGGSTYYADSVKGRFTISRDNAKNTVYLQMNSLKPEDTAVYYCAADRPGSRFIDVDYWGQGTQVTVSS”, the “polyreactivity (PSR sort gate)” value is on record as “high polyreactivity”.
The entry for “QVQLVESGGGLVQAGGSLRLSCAASGRTFSTYAMGWYRQAPGKEREMVAAISSGGGRTYYADSVKGRFTISRDYAKNTVYLQMNSLKPEDTAVYYSAADGYLRSRHGDYWGQGTQVTVSS” is “low polyreactivity”; for “QVQLVESGGGLVQAGGSLRLSCAASGRTFSVYALGWYRPAPGKERELVAGITSGGSTNYADSVKGRFTMSRDNAKNTVYLQMNILKPEDTADYSCASENVYAVFLFVSIGDYWGQGTQETVSS” it is “low polyreactivity”; for “QVQLVESGGGLVQAGGSLRLSCAASGRTFSVYAMGWYRQAPGKERELVAAIRTSGGITYYADSVKGRFTISRDNAKNTVYLQMNSLKPEDTAVYYCAAETFRHYSYTRYYYWGQGTQVTVSS” it is “high polyreactivity”.
The same measure for “QVQLVESGGGLVQAGGSLRLSCAASGRTFSVYAMGWYRQAPGKERELVARIRWSSGITYYADSVKGRFTISRDNAKNTVYLQMNSLKPEDTAVYYCAARYYTSATMDYWGQGTQVTVSS”: “high polyreactivity”; for “QVQLVESGGGLVQAGGSLRLSCAASGRTFSVYSMGWYRQAPGKERDLVAGITGNGGSTYYADSVKGSFTISRDNAKNTVYLQMNSLKPEDTAVYYCATAYWVIITRGEYGYCGQGTQVTVSS”: “low polyreactivity”.
The same measure for “QVQLVESGGGLVQAGGSLRLSCAASGRTFSWYAMGWYRQAPGKERELVAAITRDGGNTYYADSVKGRFTISRDHAKNTVYLQMNSLKPEDTAVYYCAKRGYVNYYCGQGTQVTVSS”: “high polyreactivity”; for “QVQLVESGGGLVQAGGSLRLSCAASGRTFSWYVMGLYRQAPGKERELVAAINSNSGSTYYADSVKGRFTISRDNAKNTVYLQMNSLKPEDTAVYYCAARAKRYNVRFDYWGQGTQVTVSS”: “high polyreactivity”.
Consider “QVQLVESGGGLVQAGGSLRLSCAASGRTFSYNAMGWYRQAPGKERELVAAINGDGGSTYYADSVKGRFTISRDNAKNTVYLQMNSLKPEDTAVYYCNRPRIYRYGYWGQGTQVTVSS”, for which the “polyreactivity (PSR sort gate)” value is on record as “high polyreactivity”.
The same measure for “QVQLVESGGGLVQAGGSLRLSCAASGRTFSYNAMGWYRQAPGKERELVAVISASGGRTNYADSVKGRFTISRDNAKNTVYLQMNSLKPEDTAVYYCNALFGLGVKGYDYWGQGTQVTVSS”: “low polyreactivity”; for “QVQLVESGGGLVQAGGSLRLSCAASGRTFSYNTMGWYRQAPGKERELVASISGSGGRTYYADSVKGRFTISRDNAKNTVYLQMNSLKPEDTAVYYCAARRYSRDYDYWGQGTQVTVSS”: “high polyreactivity”.
The same measure for “QVQLVESGGGLVQAGGSLRLSCAASGRTFSYYAMGLYRQAPGKEREFVAAITWRGSSTYYADSVKGRFTISRDNAKNTVYLQMNSLKPEDTAVYYCNARATNVIWGRYDYWGQGTQVTVSS”: “high polyreactivity”; for “QVQLVESGGGLVQAGGSLRLSCAASGRTFSYYAMGWYIQAPGKERELVAAITWSGASTYYADSVKGRFTISRDNAKNTVYLQMNSLKPEDTAVYYCNAGWDSGIVQSDETVYKYDYWGQGTQVTVSS”: “low polyreactivity”; for “QVQLVESGGGLVQAGGSLRLSCAASGRTFSYYAMGWYRQAPGKERELVAAISQRGGSTYYADSVKGRFTISRDNAKNTVYLQMNSLKPEDTAVYYCAVLVSRYRYRVLDDYWGQGTQVTVSS”: “high polyreactivity”.
The entry for “QVQLVESGGGLVQAGGSLRLSCAASGRTFSYYAMGWYRQAPGKERELVAAISRAGRTNYADSVKGRFTISRDNAKNTVYLQMHSLKPEDTAVYYCAADLAYGRPFVSYRTRDWGQGTQVTVSS” is “high polyreactivity”; for “QVQLVESGGGLVQAGGSLRLSCAASGRTFSYYAMGWYRQAPGKERELVAAITSRGSSTYYADSVKGRFTISRDNAKNTVYLQMNSLKPEDTAVYYCAKVRPYLDTNEYYYWGQGTQVTVSS” it is “high polyreactivity”; for “QVQLVESGGGLVQAGGSLRLSCAASGRTFSYYAMGWYRQAPGKERELVATIRFSGGGTYYADSVKGRFTISRDNAKNTVYLQMNSLKPEDTAVYYCNADSIDPFLYDYWGQGTQVTVSS” it is “low polyreactivity”.
On to “QVQLVESGGGLVQAGGSLRLSCAASGRTFSYYTMVWYRQAPGKERELVARISNRGTNTYYADSVKGRFTISRDNAKNTVYLQMNSLKPEDTAVYYCAKYYYTSIVGYDSWGQGSQVTVSS”, for which the “polyreactivity (PSR sort gate)” value is “low polyreactivity”.
The entry for “QVQLVESGGGLVQAGGSLRLSCAASGRTFTANAMGWYRQAPGKERELVAGITSRGGGTYYADSVKGRFTISRDNAKNTVYLQMNSLKPEDTAVYYCAAPYNGGGVHSYWEYDYWGQGTQVSVSS” is “high polyreactivity”; for “QVQLVESGGGLVQAGGSLRLSCAASGRTFTAYTMGWYRQAPGKERELVASITWSGGSTYYADSVKGRFTISRDNAKNTVYLQMNSLKPEDTAVYYCATAFDYGQFQLSSEFNYWGQGTQVTVSS” it is “low polyreactivity”.
“QVQLVESGGGLVQAGGSLRLSCAASGRTFTDNAMGWYRQAPGKERELVAAISRRGGSTYYADSVKGRFTISRDNAKNTVYLQMNSLKPEVTAVYYCNTDEIAGGFPYRYYLYYGYDYWGQGTQVTVSS”: the “polyreactivity (PSR sort gate)” value is recorded as “low polyreactivity”.
The entry for “QVQLVESGGGLVQAGGSLRLSCAASGRTFTEYAMGWYRQAPGKERELVAGIDSGSGSTYYADSVKGRFTISRDNAKNTVYLQMNSLKPEDTAVYYCAADHAYYRYDYWGQGTQVTVSS” is “low polyreactivity”; for “QVQLVESGGGLVQAGGSLRLSCAASGRTFTGNAMGWYRQAPGKERELVAAISFSGASTYYADSVKGRFTISRDNAKNTVYLQMNSLKPEDTAVYYCNADSRYRSFDYWGQGTQVTVSS” it is “high polyreactivity”; for “QVQLVESGGGLVQAGGSLRLSCAASGRTFTGNAMGWYRQAPGKERELVAAISQRGGRTNYADSVKGRFTISRDNAKNTVYLQMHSLKPEDTAVYYCAADQSYPKRLPSFEYWGQGTQVTVSS” it is “low polyreactivity”.
The entry for “QVQLVESGGGLVQAGGSLRLSCAASGRTFTGNVMGWYRQAPGKERELVAAISRRGGITYYADSVKGRFTISRDNAKNTVYLQMNSLKPEDTAVYYCDAYSWRRQGDHYDYWGQGTQVTVSS” is “high polyreactivity”; for “QVQLVESGGGLVQAGGSLRLSCAASGRTFTGYAMGWYRQAPGKERELVAAISASGGSTYYADSVKGRFTISRDNAKNTVYLQMNSLKPEDTAVYYCAAESWYSVLWEEGYDYWGQGTQVTVSS” it is “low polyreactivity”; for “QVQLVESGGGLVQAGGSLRLSCAASGRTFTINAMGWYRQAPGKERELVATIRSSGGSTSYADSVKGRFTISRDNAKNTVYLQMNSLKPEDTAVYYCAADGWGRYDYWGQGTQVTVSS” it is “low polyreactivity”.
The same measure for “QVQLVESGGGLVQAGGSLRLSCAASGRTFTKYAMGWYRQAPGKERELVAGITRRGGNTYYADSVKGRFTISRDNAKNTVYLQMNSLKPEDTAVYYCAATLFYTGSRFRYYYWGQGTQVTVSS”: “high polyreactivity”; for “QVQLVESGGGLVQAGGSLRLSCAASGRTFTNYAMRWYIPAPGKERELVAAAITVGGGRTYYADSVKGRFTISRENAKNTVYLQMNSLKPEDTAVYYCATDFGTYWYEYWGQGTQVTVSS”: “high polyreactivity”.
Regarding “QVQLVESGGGLVQAGGSLRLSCAASGRTFTPNAMGWYRQAPGKEREFVAAITYSGGSTRYADSVKGRFTISRDNAKNTVYLQMNSLKPEDTAVYYCAKGYFYYVYTEDDGYWGQGTQVTVSS”, the “polyreactivity (PSR sort gate)” value was “low polyreactivity”.
The same measure for “QVQLVESGGGLVQAGGSLRLSCAASGRTFTPNGMGWYRQAPGKERELVAAITYGGGITDYADSVKGRFTTSRDNAKNTVYLQMNSLKPEDTAVYYCAATTLSFEGGKYWSKYDYWGQGTQVTVSS”: “low polyreactivity”; for “QVQLVESGGGLVQAGGSLRLSCAASGRTFTRNAMGWYRQAPGKERELVAAISAGGTRTYYADSVKGRFTISRDNAKNTVYLQMNSLIPEDTAVYYCAKPIAPAPNAYPAYDYWGQGTQVTVSS”: “high polyreactivity”; for “QVQLVESGGGLVQAGGSLRLSCAASGRTFTRYAMGWYRQAPGKEREFVAAITTRGGSTYYADSVKGRFTISRDNAKNTVYLQMNSLKPEDTAVYYCAADYYYVQVLYDLGLDYWGQGTQVTVSS”: “high polyreactivity”.
The entry for “QVQLVESGGGLVQAGGSLRLSCAASGRTFTRYAMGWYRQAPGKERELVAAISLSSGRTYYADSVKGRFTISRDNAKNTVYLQMNSLKPEDTAVYYCAVRSYVVPGKGFGYWGQGTQVTVSS” is “high polyreactivity”; for “QVQLVESGGGLVQAGGSLRLSCAASGRTFTRYTMGWYRQAPGKERELVAAISSGGSTTYADSVKGRFTISRDNAKNTVYLQMNSLKPEDTAVYYCAAGLVYRGYRRDYWGQGTQVTVSS” it is “low polyreactivity”.
The same measure for “QVQLVESGGGLVQAGGSLRLSCAASGRTFTRYTMGWYRQAPGKERELVAGITRSGGSTYYADSVKGRFTISRDNAKNTVYLQMNSLKPEDTAVYYCAARLSGRYDSQDNYWGQGTQVTVSS”: “high polyreactivity”; for “QVQLVESGGGLVQAGGSLRLSCAASGRTFTSNAMGWYRQAPGKEREFVAAITRSTGSTNYADSVKGRFTISRDNAKNTVYLQMNSLKPEDTAVYYCNAYLYYKGRYSRQYYYWGQGTQVTVSS”: “high polyreactivity”.
For the sequence “QVQLVESGGGLVQAGGSLRLSCAASGRTFTSNAMGWYRQAPGKESELVAVITTSGDRTFYADSVKGRFTISRDNAKNTVYLQMNSLKPEDTAVYYCAADVRLTRGFDYWVQGTQVTVSS”, the “polyreactivity (PSR sort gate)” value is on record as “high polyreactivity”.
Turning to “QVQLVESGGGLVQAGGSLRLSCAASGRTFTSYAMGSYRQAPGKERELVAVITRRGGSTSYADSVKGRFTISRDNAKNTVYLQMNSLKPEDTAVYYCAAKRTWPDVNYYYWGQGTQVTVSS”, the “polyreactivity (PSR sort gate)” value was “high polyreactivity”.
